Data from US11448657B2, “Methods and kits for assessing Heparanase procoagulant activity, compositions comprising Heparanase, and methods for the treatment of coagulation-related disorders” (RAMBAM MED-TECH, priority 2011, dated 2022).
“Also recorded” adds a separate entry of the source.

Legend:
normal human plasma = experiment: Factor Xa generation in pooled normal human plasma; type: biochemical; settings: factor VIIa and factor X added, 15 min 37° C.
Experimental: Increasing doses of heparanase were added to pooled normal human plasma (25 μL plasma). After 15 min at 37° C., chromogenic substrate for the detection of factor Xa was added (1 mM). The mean value±SD of three independent experiments is shown. Note a 7- to 8-fold increase in coagulation activity in the presence of heparanase.
(§1) Next, the procoagulant effect of heparanase in human plasma was tested. Using an ELISA method [Shafat I. et al., Biochem Biophys Res. Commun. […] When heparanase, factor VIIa and factor X were incubated (15 min, 37° C.) with pooled normal human plasma from five healthy donors, followed by the addition of a chromogenic substrate for factor Xa, a 7- to 8-fold increase in factor Xa levels was obtained com-pared to levels in plasma incubated in the absence of heparanase (FIG. 2). In this condition the coagulation was mainly dependent on the concentration of endogenous TF, as described previously [Suefuji H. et al., Am Heart J. 1997, 134(2 Pt. 1):253-259; Kim H K et al., Cardiology. 2000, 93(1-2):31-36]. The effect of heparanase was also tested in whole blood using thromboelastography. Citrated blood samples from healthy donors to which factor VIIa (0.04 μM) and factor X (1.4 μM) were added were recalcified according to the manufacturer's recommendations (final concentration of CaCl2) 8 mM) and arranged in the disposable cups of the thromboelastogram. […]

whole blood = experiment: Thromboelastography in citrated whole blood; set-up: species or system human
Experimental: Thromboelastogram studies. The assay includes addition of factor VIIa, X and calcium to blood drawn into citrate in the presence or absence of heparanase. Each time, a sample with addition of heparanase (Hepa) and a sample without (Con)—were analyzed in parallel. R—The period of latency from the time that the blood was placed in the analyzer until the initial fibrin formation: this represents the coagulation factor activation.
Angle—measures the rapidity of fibrin build-up and cross-linking: this represents the coagulation factor amplification. MA—A direct function of the maximum dynamic properties of fibrin and platelet bonding: signifies the ultimate strength of the clot. […] Representative results are shown.
The assay was performed according to the manufacturer's recommendations. Briefly, 3 mL of healthy donor's whole blood were collected in a bottle containing 3.2% (0.12M) sodium citrate and stored at room temperature. Recalcification and TEG® measurements at 37° C. were performed in disposable cups of the Thrombelastograph® coagulation analyzer (Haemoscope Corporation, Skokie, Ill., USA).
as §1, with “thromboelastography.” for “thromboelastography. Citrated blood samples from healthy donors to which factor VIIa (0.04 μM) and factor X (1.4 μM) were added were recalcified according to the manufacturer's recommendations (final concentration of CaCl2) 8 mM) and arranged in the disposable cups of the thromboelastogram.”

TF-factor VIIa complex = biological target: T1, TF-factor VIIa complex (Homo sapiens, UniProt P13726); experiment: Activated factor X generation assay with purified TF, factor VIIa and factor X (chromogenic substrate); type: biochemical
T1 construct: purchased American Diagnostica (Stanford, Conn., USA)
Experimental: FIG. 1A. Recombinant human TF, recombinant human factor VIIa, and plasma-derived human factor X were incubated (15 min, 37° C.) in a total assay volume of 125 μL. Chromogenic substrate for the detection of factor Xa was then added (final concentration 1 mM). Recombinant active heparanase GS3 (Hepa) was added prior to the addition of the coagulation factors. The mean value±SD of three independent experiments in shown. […]
FIG. 1C. […] The mean value of two experiments is shown. Note a 2-fold increase in coagulation activity when the medium contained heparanase or its derivatives.
Following preliminary experiments to quantify the appropriate protein doses, we performed a basic experiment of factor Xa generation in the following manner: the concentrations mentioned are the final concentrations. Lipidated recombinant human TF (0.004 μM, […]), recombinant human factor VIIa (0.04 μM) and plasma-derived human factor X (1.4 μM) were incubated in 50 μL assay buffer (0.06 M Tris, 0.04 M NaCl, 2 mM CaCl 2, 0.04% bovine serum albumin, pH 8.4) to a total volume of 125 μL in a 96-well sterile plate. After 15 min at 37° C., chromogenic substrate for factor Xa was added (1 mM). After 20 min, the reaction was stopped with 50 μL of glacial acetic acid and the level of factor Xa generation was determined using an enzyme-linked immunosorbent assay (ELISA) plate reader (Power Wave XS, BIO-TEK, VT, USA). In order to visualize the increased production of factor Xa by western blotting, the experiment was repeated with 7 μM factor X. After 15 min at 37° C., half of the reaction volume was subjected to blotting using monoclonal anti-human factor X/Xa heavy chain antibody.
The factor Xa generation assay was performed as described in the Design and Methods section with increasing doses of recombinant human heparanase (GS3) added prior to the addition of the coagulation factors. […] It should be noted that factor X is composed of two polypeptide chains, a heavy chain with a molecular weight of 38 kDa and a light chain with a molecular weight of 18 kDa joined by a dipeptide Arg-Arg. The factor VIIa-TF complex activates the conversion of factor X to factor Xa by cleaving the heavy chain to a 33 kDa peptide. […] In order to exclude contamination of the heparanase preparation during the routine procedure of purification described in the Design and Methods section, the inventors tested the effect of overnight serum-free without phenol medium of 293 HEK cells over-expressing heparanase and its derivatives compared to mock. The proteins were further purified from the culture medium and analyzed. Similar quantities of proteins were obtained from the culture media.

T1 sequence (P13726 33-295): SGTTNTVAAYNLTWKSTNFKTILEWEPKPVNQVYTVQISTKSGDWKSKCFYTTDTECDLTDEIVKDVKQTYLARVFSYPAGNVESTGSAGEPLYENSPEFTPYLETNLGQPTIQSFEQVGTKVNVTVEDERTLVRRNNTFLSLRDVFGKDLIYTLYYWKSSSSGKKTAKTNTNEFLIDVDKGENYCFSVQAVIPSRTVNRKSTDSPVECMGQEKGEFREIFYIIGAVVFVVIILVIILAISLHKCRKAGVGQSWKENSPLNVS
T1 sequence (P08709 61-212 partner limits assumed): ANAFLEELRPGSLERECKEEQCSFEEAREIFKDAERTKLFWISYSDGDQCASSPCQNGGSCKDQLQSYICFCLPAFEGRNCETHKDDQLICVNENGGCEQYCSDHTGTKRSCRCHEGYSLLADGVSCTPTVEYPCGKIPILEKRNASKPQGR
T1 sequence (P08709 213-466 partner limits assumed): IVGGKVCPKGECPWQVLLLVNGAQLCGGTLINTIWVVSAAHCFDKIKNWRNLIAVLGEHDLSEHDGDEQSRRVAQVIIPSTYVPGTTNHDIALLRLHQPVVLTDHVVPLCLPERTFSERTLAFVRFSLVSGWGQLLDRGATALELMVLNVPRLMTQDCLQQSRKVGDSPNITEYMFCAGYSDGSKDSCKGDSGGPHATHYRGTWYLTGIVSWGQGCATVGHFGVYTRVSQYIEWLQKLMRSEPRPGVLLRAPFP

B1: heparanase: single chain GS3 active heparanase, comprised of the 8 kDa and 50 kDa heparanase heterodimer (8+50), recombinant human (protein, listed as Homo sapiens)
chain 1: DPAQDVVDLDFFTQEPLHLVSPSFLSVTIDANLATDPRFLILLGSPKLRTLARGLSPAYLRFGGTKTDFLIFDPKKE
chain 2: DPGKKFKNSTYSRSSVDVLYTFANCSGLDLIFGLNALLRTADLQWNSSNAQLLLDYCSSKGYNISWELGNEPNSFLKKADIFINGSQLGEDFIQLHKLLRKSTFKNAKLYGPDVGQPRRKTAKMLKSFLKAGGEVIDSVTWHHYYLNGRTATREDFLNPDVLDIFISSVQKVFQVVESTRPGKKVWLGETSSAYGGGAPLLSDTFAAGFMWLDKLGLSARMGIEVVMRQVFFGAGNYHLVDENFDPLPDYWLSLLFKKLVGTKVLMASVQGSKRRKLRVYLHCTNTDNPRYKEGDLTLYAINLHNVTKYLRLPYPFSNKQVDKYLLRPLGPHGLLSKSVQLNGLTLKMVDDQTLPPLMEKPLRPGSSLGLPAFSYSFFVIRNAKVAACI
modifications: single-chain GS3 linker
In the case of B1, the “increase in coagulation activity (factor Xa levels) in plasma” value (normal human plasma) is reported as 7- to 8 fold, the “time to clot formation (R) at the highest dose” value (whole blood; heparanase 4 μM) is reported as “effect on time to clot formation was abolished; also recorded: no effect on R is detected” and the “thrombus strength (MA)” value (whole blood; increasing doses of heparanase) is reported as “increase in thrombus strength; also recorded: stronger”. The “time to clot formation (R)” value (whole blood; increasing doses of heparanase, factor VIIa 0.04 μM, factor X 1.4 μM, recalcified blood) was “significant reduction in time to clot formation; also recorded: significantly faster”, the “increase in coagulation activity (factor Xa level)” value (TF-factor VIIa complex; TF, factor VIIa, factor X, 15 min 37° C., heparanase added prior to the coagulation factors) was 2 fold and the “effect on Xa generation at reduced factor VIIa” value (TF-factor VIIa complex; absence of sufficient factor VIIa) was “effect of heparanase was abolished”. The “increase in factor Xa levels” value (TF-factor VIIa complex; overnight serum-free medium of 293 HEK cells over-expressing heparanase species, compared to mock) was 2 fold, the “Xa generation at reduced TF” value (TF-factor VIIa complex; very low levels of TF (3.13 μg)) was “increased Xa generation by three folds” and the “factor Xa generation in incomplete reaction mixture” value (TF-factor VIIa complex; without TF, factor VIIa or factor X, or with inactivated VIIa) was “Factor Xa was not generated”.
